# Legend:
# [1] = biological target: Purified PHB domain of FloA (Staphylococcus aureus); assay: SEC; purified FloA variants at ~60 μM, Superdex 200 Increase 10/300 GL, 300 mM NaCl, 50 mM Tris-HCl pH 8.0, 10% glycerol, 0.02% DDM
# [2] = biological target: Purified OBL domain of NfeD (Staphylococcus aureus); assay: SEC; purified NfeD variants at ~60 μM, Superdex 75 Increase 10/300 GL, 300 mM NaCl, 50 mM Tris-HCl pH 8.0, 10% glycerol, 0.02% DDM
# [3] = biological target: PHB-CC_(ΔEA4), PHB-CC variant with A286E287A288 deleted (Staphylococcus aureus); assay: SEC; purified FloA variants at ~60 μM, Superdex 200 Increase 10/300 GL, 300 mM NaCl, 50 mM Tris-HCl pH 8.0, 10% glycerol, 0.02% DDM
# [4] = biological target: Purified native NfeD (Staphylococcus aureus); assay: SEC; purified NfeD variants at ~60 μM, Superdex 75 Increase 10/300 GL, 300 mM NaCl, 50 mM Tris-HCl pH 8.0, 10% glycerol, 0.02% DDM
substance,measurement,setting,value
Purified PHB domain of FloA (domain or fragment),stoichiometry N,[1],2
Purified OBL domain of NfeD (domain or fragment),stoichiometry N,[2],2
"PHB-CC_(ΔEA4), PHB-CC variant with A286E287A288 deleted (domain or fragment)",stoichiometry N,[3],2
Purified native NfeD (natural protein),stoichiometry N,[4],2

# Reference: paper PMC11222466
